These results are taken from the supplement of paper PMC10567573.

B1: ZNF649 (parent)
chain: YQAGKPDALTKLEQGEPLWTLEDE
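Also: lentivirally expressed fusions sorted by FACS into six bins by GFP to DsRed ratio, PSI derived from sequencing read proportions per bin multiplied by bin number.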

The variants in this data set derive from B1. Put plainly: protein stability index of a GFP-peptide fusion (GPS, HEK-293T) (PSI 1-6); higher = more stable. To be noted: c terminus: a fixed tail appended.
Take YQAGKPDALTKLEQGEPLWTLETE: the protein stability index turned out to be 3.32.

As for YQAGKPDALTKLEQGEPLWTLEHE, the protein stability index is 4.13.

As to YQAGKPDALTKLEQGEPLWTLELE, the protein stability index was determined as 2.97.

Regarding YQAGKPDALTKLEQGEPLWTLEIE, the protein stability index is 1.84.

For YQAGKPDALTKLEQGEPLWTLEVE, the protein stability index came out at 3.81.

Turning to YQAGKPDALTKLEQGEPLWTLEYE, the protein stability index came to 2.14.

Consider YQAGKPDALTKLEQGEPLWTLECE, for which the protein stability index is 2.98.

With YQAGKPDALTKLEQGEPLWTLEWE, the protein stability index was 2.13.

Turning to YQAGKPDALTKLEQGEPLWTLERE, the protein stability index turned out to be 4.16.

As for YQAGKPDALTKLEQGEPLWTLENE, the protein stability index turned out to be 3.25.

In the case of YQAGKPDALTKLEQGEPLWTLEGE, the protein stability index was 3.61.

For YQAGKPDALTKLEQGEPLWTLEEE, the protein stability index is 4.57.

As for YQAGKPDALTKLEQGEPLWTLEFE, the protein stability index stood at 3.38.

Consider YQAGKPDALTKLEQGEPLWTLEME, for which the protein stability index is 2.99.

Regarding YQAGKPDALTKLEQGEPLWTLEPE, the protein stability index stood at 3.78.

For YQAGKPDALTKLEQGEPLWTLESE, the protein stability index was 4.11.

As to YQAGKPDALTKLEQGEPLWTLEQE, the protein stability index worked out at 3.86.

In the case of YQAGKPDALTKLEQGEPLWTLEKE, the protein stability index amounted to 3.51.

As to YQAGKPDALTKLEQGEPLWNLEDE, the protein stability index is 4.42.

As to YQAGKPDALTKLEQGEPLWSLEDE, the protein stability index was 3.73.

Regarding YQAGKPDALTKLEQGEPLWQLEDE, the protein stability index turned out to be 4.82.

Consider YQAGKPDALTKLEQGEPLWHLEDE, for which the protein stability index came to 4.57.

For the variant YQAGKPDALTKLEQGEPLWRLEDE, the protein stability index was 4.34.

As for YQAGKPDALTKLEQGEPLWLLEDE, the protein stability index came to 3.15.

For the variant YQAGKPDALTKLEQGEPLWILEDE, the protein stability index came out at 3.96.

As to YQAGKPDALTKLEQGEPLWFLEDE, the protein stability index was 4.22.

Turning to YQAGKPDALTKLEQGEPLWYLEDE, the protein stability index was found to be 4.7.

Consider YQAGKPDALTKLEQGEPLWDLEDE, for which the protein stability index amounted to 5.06.

For the variant YQAGKPDALTKLEQGEPLWCLEDE, the protein stability index came out at 2.62.

On to YQAGKPDALTKLEQGEPLWVLEDE, for which the protein stability index came out at 4.41.

Turning to YQAGKPDALTKLEQGEPLWELEDE, the protein stability index was 5.14.

For YQAGKPDALTKLEQGEPLWGLEDE, the protein stability index came to 4.24.

As for YQAGKPDALTKLEQGEPLWPLEDE, the protein stability index stood at 4.58.

With YQAGKPDALTKLEQGEPLWMLEDE, the protein stability index is 5.05.

In the case of YQAGKPDALTKLEQGEPLWALEDE, the protein stability index stood at 3.73.

With YQAGKPDALTKLEQGEPLWWLEDE, the protein stability index stood at 2.67.

With YQAGKPDALTKLEQGEPLWKLEDE, the protein stability index is 4.13.

Turning to YQAGKPDALTKLEQGEPLYTLEDE, the protein stability index worked out at 5.24.

For YQAGKPDALTKLEQGEPLVTLEDE, the protein stability index is 5.72.

On to YQAGKPDALTKLEQGEPLPTLEDE, for which the protein stability index came to 5.62.

Take YQAGKPDALTKLEQGEPLSTLEDE: the protein stability index is 5.57.

On to YQAGKPDALTKLEQGEPLMTLEDE, for which the protein stability index turned out to be 4.87.

Consider YQAGKPDALTKLEQGEPLNTLEDE, for which the protein stability index was found to be 5.2.

For the variant YQAGKPDALTKLEQGEPLTTLEDE, the protein stability index is 5.61.

Take YQAGKPDALTKLEQGEPLRTLEDE: the protein stability index came out at 4.69.

As for YQAGKPDALTKLEQGEPLWTLMDE, the protein stability index was 2.92.

Turning to YQAGKPDALTKLEQGEPLWTLHDE, the protein stability index is 3.3.

For YQAGKPDALTKLEQGEPLWTLKDE, the protein stability index came to 3.46.

With YQAGKPDALTKLEQGEPLWTLWDE, the protein stability index was 2.35.

Consider YQAGKPDALTKLEQGEPLWTLNDE, for which the protein stability index is 3.95.

Regarding YQAGKPDALTKLEQGEPLWTLYDE, the protein stability index worked out at 2.62.

As for YQAGKPDALTKLEQGEPLWTLVDE, the protein stability index amounted to 2.88.

Turning to YQAGKPDALTKLEQGEPLWTLADE, the protein stability index worked out at 4.8.

With YQAGKPDALTKLEQGEPLWTLDDE, the protein stability index came out at 4.6.

For YQAGKPDALTKLEQGEPLWTLFDE, the protein stability index came to 2.05.

As to YQAGKPDALTKLEQGEPLWTLPDE, the protein stability index was found to be 4.39.

As to YQAGKPDALTKLEQGEPLWTLLDE, the protein stability index amounted to 3.6.

YQAGKPDALTKLEQGEPLWTLGDE: the protein stability index stood at 3.88.

Take YQAGKPDALTKLEQGEPLWTLCDE: the protein stability index turned out to be 3.45.

In the case of YQAGKPDALTKLEQGEPLWTLSDE, the protein stability index stood at 2.75.

As to YQAGKPDALTKLEQGEPLWTLQDE, the protein stability index was 3.5.

For YQAGKPDALTKLEQGEPLWTLIDE, the protein stability index came out at 3.75.

With YQAGKPDALTKLEQGEPLWTLTDE, the protein stability index is 4.28.

For the variant YQAGKPDALTKLEQGEPLWTLEDI, the protein stability index was determined as 3.42.

Take YQAGKPDALTKLEQGEPLWTLEDM: the protein stability index was 3.88.

In the case of YQAGKPDALTKLEQGEPLWTLEDA, the protein stability index is 3.74.

For YQAGKPDALTKLEQGEPLWTLEDF, the protein stability index came to 3.05.

Turning to YQAGKPDALTKLEQGEPLWTLEDP, the protein stability index came out at 4.32.

With YQAGKPDALTKLEQGEPLWTLEDK, the protein stability index came to 4.41.

Take YQAGKPDALTKLEQGEPLWTLEDQ: the protein stability index turned out to be 4.02.

With YQAGKPDALTKLEQGEPLWTLEDC, the protein stability index came to 3.49.

On to YQAGKPDALTKLEQGEPLWTLEDL, for which the protein stability index amounted to 3.53.

As for YQAGKPDALTKLEQGEPLWTLEDH, the protein stability index stood at 4.04.

As for YQAGKPDALTKLEQGEPLWTLEDN, the protein stability index amounted to 4.27.

Take YQAGKPDALTKLEQGEPLWTLEDG: the protein stability index amounted to 3.87.

For YQAGKPDALTKLEQGEPLWTLEDD, the protein stability index turned out to be 4.71.

In the case of YQAGKPDALTKLEQGEPLWTYEDE, the protein stability index was 4.95.

YQAGKPDALTKLEQGEPLWTFEDE: the protein stability index worked out at 4.42.

In the case of YQAGKPDALTKLEQGEPLWTDEDE, the protein stability index came to 4.89.

Consider YQAGKPDALTKLEQGEPLWTWEDE, for which the protein stability index was 3.52.

For YQAGKPDALTKLEQGEPLWTREDE, the protein stability index stood at 4.55.

With YQAGKPDALTKLEQGEPLWTTEDE, the protein stability index amounted to 4.37.

YQAGKPDALTKLEQGEPLWTVEDE: the protein stability index is 2.31.

As for YQAGKPDALTKLEQGEPLWTCEDE, the protein stability index stood at 2.78.

For the variant YQAGKPDALTKLEQGEPLWTEEDE, the protein stability index came to 5.3.

Turning to YQAGKPDALTKLEQGEPLWTIEDE, the protein stability index turned out to be 4.06.

On to YQAGKPDALTKLEQGEPLWTMEDE, for which the protein stability index came out at 3.88.

In the case of YQAGKPDALTKLEQGEPLWTSEDE, the protein stability index stood at 4.52.

With YQAGKPDALTKLEQGEPLWTAEDE, the protein stability index turned out to be 4.47.

As for YQAGKPDALTKLEQGEPLWTKEDE, the protein stability index was determined as 4.79.

Turning to YQAGKPDALTKLEQGEPLWTHEDE, the protein stability index stood at 5.03.

Regarding YQAGKPDALTKLEQGEPLWTNEDE, the protein stability index came to 4.39.

On to YQAGKPDALTKLEQGEPLWTQEDE, for which the protein stability index worked out at 4.23.

Regarding YQAGKPDALTKLEQGEPLWTGEDE, the protein stability index was 4.4.
